Assay in all cases: SEC; analytical SEC, Superdex 200 Increase 10/300 GL, buffer W (100 mM Tris-HCl pH 8.0, 150 mM NaCl, 2.5 mM EDTA); protein solutions from the two AEC elution peaks; oligomeric state from the elution volume by the column's calibration
The target of assay [1] is Chlamydomonas reinhardtii truncated hemoglobin THB11, full length (Chlamydomonas reinhardtii).
Assay [2] has as its target THB11-C (THB11 lacking the C-terminal 225 residues) (Chlamydomonas reinhardtii).
For assay [3], the target named is THB11-N (THB11 lacking the N-terminal 41 amino acids) (Chlamydomonas reinhardtii).

These results are taken from paper PMC7082302.

Values joined by “and” are separate entries in the source; they are usually repeats but may differ in a detail not shown here. Equal entries are not always repeated.

As a reminder, the stoichiometry N is the number of molecules, sites or subunits per partner or assembly. For “Chlamydomonas reinhardtii truncated hemoglobin THB11, full length (natural protein)”, in assay [1], the stoichiometry N was 3 and 7.
For the substance “THB11-C (THB11 lacking the C-terminal 225 residues) (domain or fragment)”, in assay [2], the stoichiometry N is 3.
Turning to “THB11-N (THB11 lacking the N-terminal 41 amino acids) (domain or fragment)”, the stoichiometry N in assay [3] is 3 and 7.
